Our source for the Kd, koff and kon values is PMC4374921, “Inhibition of Type VI Secretion by an Anti-TssM Llama Nanobody” (PLoS ONE, 2015).

B1: anti-TssM nanobody nb42 (VHH)
VHH: DVQLVESGGGLVQAGGSLRLSCAASGFTFGDYAIGWFRQAPGKEREGVSCFSNSDGSTYYADSVKGRFTSSSDNAKNTQYLQMNSLKPEDTAIYYCAAVKAQGIYCTEYIIGPYGMDYWGKGTLVTVSS
notes: very similar to nb25, CDR3 identical to that of nb25; No structure was solved for nb42; also called nb25 variant nb42; source: E. coli WK6 periplasm (pHEN6, pelB signal peptide), purified (Ni-NTA, Superdex 75)
B2: anti-TssM nanobody nb25 (VHH)
VHH: QVQLVESGGGLVQAGGSLRLSCAASGFTFEDYAIGWFRQAPGKEREGVSCISNLDGSTYYPDSVKGRFTASSDKAKNMVYLQMNSLKPEDTAVYYCAAVNAQGIYCTDYIIGPYGMDYWGKGTQVTVSS
notes: llama VHH raised against TssMp; CDR3 of 19 residues, disulfide bridge between Cys-106 and CDR2 Cys-50; source: E. coli WK6 periplasm (pHEN6, pelB signal peptide), purified (Ni-NTA, Superdex 75)
B3: anti-TssM nanobody nb02 (VHH)
VHH: DVQLVESGGGLVHPGGSLRLSCAASGRTFSDYALGWFRQAPGKDREFVAAISWSGGSTYYADSVQGRFTISRDNDKNSVYLQMNSLKPEDTAVYYCAADKYYTGPGGESVYDYWGRGTQVTVSS
notes: llama VHH raised against TssMp; CDR3 of 14 residues; source: E. coli WK6 periplasm (pHEN6, pelB signal peptide), purified (Ni-NTA, Superdex 75)

The target in the experiment is T1, periplasmic domain of the EAEC TssM protein (enteroaggregative Escherichia coli …).
T1 construct: TssM of enteroaggregative Escherichia coli (EAEC), a 1129-amino-acid inner membrane protein; periplasmic domain, amino-acids 386-1129; also called TssM periplasmic domain; source: recombinant, produced and purified as described previously [11]
T1 chain: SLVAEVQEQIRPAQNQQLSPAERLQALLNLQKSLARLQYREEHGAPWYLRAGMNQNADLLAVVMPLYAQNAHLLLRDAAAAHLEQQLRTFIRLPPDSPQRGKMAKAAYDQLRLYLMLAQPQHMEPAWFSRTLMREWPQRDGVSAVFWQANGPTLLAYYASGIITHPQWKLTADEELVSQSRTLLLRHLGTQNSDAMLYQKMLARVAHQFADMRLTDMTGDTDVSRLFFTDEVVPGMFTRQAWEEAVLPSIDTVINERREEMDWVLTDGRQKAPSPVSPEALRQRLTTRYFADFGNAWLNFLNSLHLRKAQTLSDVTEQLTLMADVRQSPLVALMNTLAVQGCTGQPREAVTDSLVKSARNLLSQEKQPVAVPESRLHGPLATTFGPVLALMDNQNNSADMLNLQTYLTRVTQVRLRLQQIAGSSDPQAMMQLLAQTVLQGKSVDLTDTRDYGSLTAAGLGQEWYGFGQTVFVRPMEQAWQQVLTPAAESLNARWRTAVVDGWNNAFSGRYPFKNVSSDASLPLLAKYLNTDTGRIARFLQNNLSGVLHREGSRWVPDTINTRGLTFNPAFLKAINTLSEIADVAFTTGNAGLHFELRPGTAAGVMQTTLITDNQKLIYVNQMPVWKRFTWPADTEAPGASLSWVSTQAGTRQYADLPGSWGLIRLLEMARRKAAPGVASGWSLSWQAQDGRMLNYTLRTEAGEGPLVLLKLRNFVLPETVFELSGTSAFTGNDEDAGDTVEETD
Put plainly: SPR; nanobodies covalently linked to a CM5 chip, TssMp injected (1.95 to 250 nM); Biacore X100; multi-cycle kinetics; regeneration with glycine-HCl pH 2.5; apparent KDs. The following applies: both partners purified. In general terms: In SPR one partner is held on a chip, and binding of the other changes the refractive index at the surface.
What is called koff is the first-order rate constant of dissociation. Usually kon stands for a measure of how fast the partners come together. In the case of B1, the Kd is 1.76 ± 0.08 nM, the off-rate (koff) stood at 0.00036 s⁻¹ and the kon amounted to 204000 M⁻¹ s⁻¹.

On to B2, for which the Kd came out at 1.61 ± 0.05 nM, the koff worked out at 0.00056 s⁻¹ and the kon is 350000 M⁻¹ s⁻¹.

For B3, the Kd is 66.8 ± 2.5 nM, the koff amounted to 0.0402 s⁻¹ and the on-rate constant (kon) worked out at 602000 M⁻¹ s⁻¹.
